We go through 34 sequences from the domain aggregation screens of Martell et al. (2025).

A short description of the data set: soluble fraction after stress (log2 fold change); higher = more stays soluble; pooled small domains, quantitative proteomics. The note with it: stress: pH 4. The method in brief:
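Values are log2 fold changes, and higher ones mean more of the domain stayed soluble. Each fold change reflects the soluble amount of a domain after acid stress and is taken as a measure of aggregation propensity. The stress was pH 4, applied to pooled custom libraries of small protein domains analysed by high-throughput quantitative proteomics.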
As for “HMETYTVSSKDGYANVRNEATVNSDLIAELKNGTLVTKFKEKGEWYYIEFEREDGTPFDYGYIHKSQLK”, the “soluble fraction (log2)” value was -0.224. To “HMEVALEVPELRGLSMKQATNTLMASGFEVQKVGSGTIYAQFPLPGERLRTGYAVTIRGKTRDLG” belongs 0.047. To “HMEVAPEKVLEALNELPEIYKIVLNLYAVENMSHKEIAKKLGISLGSSKSRLSRGRVMLNTLLNR” belongs -0.866; to “HMEVDWLEVEKVIVSSSYSWMENSPKVKLLQEYIGVTADGIYGLGTWGAHRTHAVDLGFINLSYPIP”, -1.69.

As to “HMEVEADEFQQLLRSGEYVQALDRARANQDIGLRQQQIVQIARHQAASGIQAGAMGSLASLYQF”, the “soluble fraction (log2)” value is -0.461. “HMEVHLMPGTVLLREYESNEYRVTVTPEGFYDLNGKVFKSLSAVARHITGVNWSGPRFFGVEP”: the “soluble fraction (log2)” value was -0.604.

As for “HMEVLSYYGSRGQEVVNIQTKLKQWGYYKGNIDGIFGNLTYQAVREFQRKNGLKVDGIVGPETLAALGLPT”, the “soluble fraction (log2)” value is -0.479. Regarding “HMEVPQVETEKVEAKLKEAEVLLVKVTDSSLKANATETLAGLRNNLTLQTMDNNGIMAEAEKLLALLRES”, the “soluble fraction (log2)” value is -0.315. In the case of “HMEVPTGNHIRRWRKSLDITQVKLSSLSGVAQSIIAKIENETVDPRVSTLRKLVEALSRFENP” it was -0.358.

For “HMEVQVGKQVRAFRETLGMTVQQFAERTGFSAALLAQIENRMVSPSLGTLVKIANTFGTTVSSFIG”, the “soluble fraction (log2)” value is -0.38.

Consider “HMEVSTDADFEAVGIRAELIPILQKLGFTTVAQLKEVKATKLFNDIPGMRKKLKLDAVQNPTLQEIEGWLK”, for which the “soluble fraction (log2)” value worked out at 0.0606.

As for “HMEVTLEEKLSYVEEYAKVHSHFSFRDLLKKQASKTQIVVTFLAILELMKTGKIQITQEHIFDDIVITAK”, the “soluble fraction (log2)” value was -0.649. To “HMEVTYQETLRVLYNAIDKLPPQTKEIILIGLDGKDNNEIAATLNISVNTVKTLKKNAYKTLRELLVD” belongs -0.601; to “HMEWNPEKQHLLENYITNYSRQLNDTGLFYKNLDWNYIFNLVGVDDQEFLMLKIDEIYDESINVY”, -1.63.

As for “HMEWNREQLEQIVLQHIRKHGFITRATYTELTGRLKNSALADLKSFAAEGIIKRVGRGNQMHFIVPL”, the “soluble fraction (log2)” value turned out to be 0.221. To “HMEWTDHLAEELRSLAVEGEHLEIIANKLGISPGSARAKLVNLNIYNDYQLAHIERLEADTLQAK” belongs -0.967; to “HMEYFDDEELDRYKGRTSDSFTDDEAEEFREVMMTMHPEEVKAWNRSLILRDVAMPDQIKDDYIMLAG”, -2.41.

On to “HMEYKYNPADYPYPLNEDIEKVYSAYREKSIGKLEAAVQNLYYTLKQARRDNILSDVKVNEMQQYFLALRN”, for which the “soluble fraction (log2)” value was determined as 0.0584. In the case of “HMEYNLTLEELNRDLYIRGEIWNVGDVVKTTDGDEGTIIRKGTNYVVFEDLRRVWLHNLEEVK” it was -1.64; in that of “HMEYREFEAMTIRAIATLPPTQGHVIMLSRFEGLDNKEIALRLNLSLQTVKNTLTQGLKELKNKMRKLP”, -0.119. In the case of “HMEYSAAYDRELESIFNLTERGKWEEAEAEVGLLLQQYPEDKTLLRISEWVATQKTILREQAIEDRIRS” it was -0.48. Consider “HMEYSYKLIDLLVDRFSEEGVDPEEAREYINLFHRFSQGLDPDKRDITKYSWDELYRTVNDKKDS”, for which the “soluble fraction (log2)” value is -0.344.

On to “HMEYTVNHYPEKHRFEVVEDGLTAYVEYRLRGDALDIIHTIVPKNLEGRGIAATLVETAYKYAKEQ”, for which the “soluble fraction (log2)” value was -1.35. For “HMFAAIFADDSGFTTRSKRFGPYVEEIAADWQAVKQLSDEDAKQALVPLVKKIELALSTLQQFVSSV”, the “soluble fraction (log2)” value is -0.405. For “HMFAATGTVNTEGSSLRLRAEASTSSSVLKQLSHGTQVDVLSGLVDGWYQVSYKGTTGYVSGEYLTVTE”, the “soluble fraction (log2)” value is -0.000126. To “HMFADLNPDENYGQVYIRTNTIDNLYQTLLDNKTRIHPNGLLELKPWGQKEFSILDPDKNLLTFGES” belongs -0.317; to “HMFAERLKELRKMRRFSQHALAERLGISQQAVGKWETGKSTPDPATLREIADIFEVSVDLLLGR”, 0.124; to “HMFDDEELDRFAGVPADAYLPADEDEFREVFYTMRPGEVVEWVRSLELRHIEIPNGIKDEIFMMIR”, -3.37. For “HMFDEDKLIISIGSKVRIIREPYFGTIGKVVELPPELVKMDTEAMLRVAIIKLDDGEKVTIPRANLEVILS”, the “soluble fraction (log2)” value was -0.87. Consider “HMFDEVKDAARRLAALLDQAGGTLTLNDKSAPEEVAALTGMSKKVFKRALGHLMSRSEVVVADGRITKKD”, for which the “soluble fraction (log2)” value was -0.196. To “HMFDGRSDAEKTLDLIKTAIDNILKGGAIQEYKIGTRTAKKYDMAELQVLKGEYAAMVAREKQAETMA” belongs -0.481; to “HMFDGVAAGKPAILDALEDAGGFLPLNSKSSVEEIQASFSFSKRVFKQLIGMLYKERKIVITDDGIRLAD”, -0.654. Take “HMFDGYQWLKRDIIRGVYQPEEKLRMSLLTNRYGLGVGPLREALSQLVAEHLVTVVSQKGYRVAPM”: the “soluble fraction (log2)” value is -0.0817. To “HMFDKNKPVVVEGENAEVALKKVSKYFNVPTEKLDYTLLGQKSAGLLGIGSKVYQFKVWLKREIP” belongs not below 0.43.
